Legend:
[1] = target: recombinant human PD-1 protein (residues 21-167) (human) (UniProt Q15116); assay: ELISA; blocking: plates coated with 0.5 ug/mL PD-1 (21-167); antibody from 3 ug/mL, 1.5-fold dilutions, 37 °C 120 min; then 1 ug/mL PD-L1-mFc, detected with HRP-anti-mouse Fc
[2] = target: T1, human PD-1 extracellular domain (residues 21-167) (Homo sapiens, UniProt Q15116, N-linked glycans seen at N49, N58 and N116 (N58: two N-acetylglucosamines, one fucose and two mannoses; N49 and N116: one N-acetylglucosamine modelled); N74 ambiguous); assay: crystal structure; PD-1 (21-167) and MW11-h317 Fab mixed 1:2, complex purified on Superdex 200; crystals at 16 °C in 0.1 M Bis-Tris pH 6.5, 28% PEG monomethyl ether 2000; 2.9 Å; two complexes per asymmetric unit; conditions: both partners purified
T1 construct: Construct used for the complex with MW11-h317 Fab and its crystal structure; also called hPD-1; Programmed cell death protein 1; source: CHO cells, electrotransfected; purified from supernatant by a nivolumab-coupled resin
T1 sequence (Q15116 21-167): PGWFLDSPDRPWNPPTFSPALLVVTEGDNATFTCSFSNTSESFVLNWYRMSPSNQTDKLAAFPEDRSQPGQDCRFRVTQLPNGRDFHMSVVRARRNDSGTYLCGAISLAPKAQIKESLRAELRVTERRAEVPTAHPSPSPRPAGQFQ

Sequence of recombinant human PD-1 protein (residues 21-167) (human) (Q15116 21-167): as above

Row | IC50 [1] | stoichiometry N [2] | Binder
1 | 1.4 nM | – | MW11-h317 (humanized anti-PD-1 monoclonal antibody) (antibody, V domains shown) VH: EVQLVESGGGLVKPGGSLRLSCAASGFTFSSYDMSWVRQAPGKGLEWVATISGGGSYTYYPDSVKGRFTISRDNAKNSLYLQMNSLRAEDTAVYYCASPDSSGVAYWGQGTLVTVSS VL: DIVMTQSPLSLPVTPGEPASITCKASQDVETVVAWYLQKPGQSPRLLIYWASTRHTGVPDRFSGSGSGTDFTLKISRVEAEDVGVYYCQQYSRYPWTFGQGTKLEIK
2 | – | 1 | MW11-h317 Fab (Fab, V domains shown, heavy chain of the Fab in the structure deposited here (PDB 6JJP); light chain of the Fab in the structure deposited here (PDB 6JJP); The methods speak of plasmids encoding VL and VH; also called MW11-h317 Fab fragment; source: HEK 293, co-transfected with two plasmids; purified from supernatant (Protein G, HiTrap Capto S)) VH: EVQLVESGGGLVKPGGSLRLSCAASGFTFSSYDMSWVRQAPGKGLEWVATISGGGSYTYYPDSVKGRFTISRDNAKNSLYLQMNSLRAEDTAVYYCASPDSSGVAYWGQGTLVTVSS VL: DIVMTQSPLSLPVTPGEPASITCKASQDVETVVAWYLQKPGQSPRLLIYWASTRHTGVPDRFSGSGSGTDFTLKISRVEAEDVGVYYCQQYSRYPWTFGQGTKLEIK

— article PMC6814707 (Communications Biology, 2019)
